Measured values as given in FireProtDB (doi:10.1110/ps.051838206).
Where “and” joins values, the source holds several entries; their conditions need not be identical. Identical values can stand only once.

B1: Azurin, P00282 (parent)
chain: MLRKLAAVSLLSLLSAPLLAAECSVDIQGNDQMQFNTNAITVDKSCKQFTVNLSHPGNLPKNVMGHNWVLSTAADMQGVVTDGMASGLDKDYLKPDDSRVIAHTKLIGSGEKDSVTFDVSKLKEGEQYMFFCTFPGHSALMKGTLTLK

Variants of: B1
Settings: Pseudomonas aeruginosa (strain ATCC 15692 / DSM 22644 / CIP 104116 / JCM 14847 / LMG 12228 / 1C / PRS 101 / PAO1), pH 7, 25 °C, GdnHCl, Tris-HCl 100 mM, reversible: Yes, structure 5AZU, whole UniProt chain shown

Variant	ddG of mutation (higher = less stable) (CD)	unfolding free energy (CD)	unfolding free energy (Fluorescence)	ddG of mutation (higher = less stable) (Fluorescence)
V42A	1.43 kcal/mol	4.54 kcal/mol		
V42T		5.02 kcal/mol and 8.6 kcal/mol	5.02 kcal/mol and 8.6 kcal/mol	
V51T		4.9 kcal/mol and 8.84 kcal/mol	4.9 kcal/mol and 8.84 kcal/mol	
V115T		6.93 kcal/mol and 12.8 kcal/mol	6.93 kcal/mol and 12.8 kcal/mol	
L70V	0.36 kcal/mol and 0.24 kcal/mol	5.62 kcal/mol and 12.7 kcal/mol	5.62 kcal/mol and 12.7 kcal/mol	0.36 kcal/mol and 0.24 kcal/mol
L70T	2.34 kcal/mol and 2.15 kcal/mol	3.63 kcal/mol and 10.8 kcal/mol	10.8 kcal/mol	2.15 kcal/mol
I40T	2.39 kcal/mol and 1.91 kcal/mol			2.39 kcal/mol and 1.91 kcal/mol
I40A			4.42 kcal/mol	1.55 kcal/mol
I40V		5.59 kcal/mol and 12.9 kcal/mol	5.59 kcal/mol and 12.9 kcal/mol	
I101A	2.39 kcal/mol	3.59 kcal/mol	3.59 kcal/mol	2.39 kcal/mol
I101V		5.9 kcal/mol and 12.7 kcal/mol	5.9 kcal/mol and 12.7 kcal/mol	
I101T	2.51 kcal/mol and 3.35 kcal/mol	3.47 kcal/mol and 9.56 kcal/mol	3.47 kcal/mol and 9.56 kcal/mol	2.51 kcal/mol and 3.35 kcal/mol
